Measured values published in patent US20250289897A1, “LEPTIN RECEPTOR AGONISTIC ANTIBODY AS MONO OR COMBO THERAPIES TO TREAT OBESITY” (ELI LILLY AND COMPANY, priority 2024, published 2025).

Molecular target: T1, mouse-LEPR (Mus musculus, UniProt P48356)
T1 construct: introducing DNA plasmids encoding full-length LEPR of different species and STAT3-luciferase reporter gene into HEK293 cells; expressed in transfected cells; host or cells: HEK293 (HEK293-STAT3Luc-msLepR9)
T1 sequence (P48356 22-1162): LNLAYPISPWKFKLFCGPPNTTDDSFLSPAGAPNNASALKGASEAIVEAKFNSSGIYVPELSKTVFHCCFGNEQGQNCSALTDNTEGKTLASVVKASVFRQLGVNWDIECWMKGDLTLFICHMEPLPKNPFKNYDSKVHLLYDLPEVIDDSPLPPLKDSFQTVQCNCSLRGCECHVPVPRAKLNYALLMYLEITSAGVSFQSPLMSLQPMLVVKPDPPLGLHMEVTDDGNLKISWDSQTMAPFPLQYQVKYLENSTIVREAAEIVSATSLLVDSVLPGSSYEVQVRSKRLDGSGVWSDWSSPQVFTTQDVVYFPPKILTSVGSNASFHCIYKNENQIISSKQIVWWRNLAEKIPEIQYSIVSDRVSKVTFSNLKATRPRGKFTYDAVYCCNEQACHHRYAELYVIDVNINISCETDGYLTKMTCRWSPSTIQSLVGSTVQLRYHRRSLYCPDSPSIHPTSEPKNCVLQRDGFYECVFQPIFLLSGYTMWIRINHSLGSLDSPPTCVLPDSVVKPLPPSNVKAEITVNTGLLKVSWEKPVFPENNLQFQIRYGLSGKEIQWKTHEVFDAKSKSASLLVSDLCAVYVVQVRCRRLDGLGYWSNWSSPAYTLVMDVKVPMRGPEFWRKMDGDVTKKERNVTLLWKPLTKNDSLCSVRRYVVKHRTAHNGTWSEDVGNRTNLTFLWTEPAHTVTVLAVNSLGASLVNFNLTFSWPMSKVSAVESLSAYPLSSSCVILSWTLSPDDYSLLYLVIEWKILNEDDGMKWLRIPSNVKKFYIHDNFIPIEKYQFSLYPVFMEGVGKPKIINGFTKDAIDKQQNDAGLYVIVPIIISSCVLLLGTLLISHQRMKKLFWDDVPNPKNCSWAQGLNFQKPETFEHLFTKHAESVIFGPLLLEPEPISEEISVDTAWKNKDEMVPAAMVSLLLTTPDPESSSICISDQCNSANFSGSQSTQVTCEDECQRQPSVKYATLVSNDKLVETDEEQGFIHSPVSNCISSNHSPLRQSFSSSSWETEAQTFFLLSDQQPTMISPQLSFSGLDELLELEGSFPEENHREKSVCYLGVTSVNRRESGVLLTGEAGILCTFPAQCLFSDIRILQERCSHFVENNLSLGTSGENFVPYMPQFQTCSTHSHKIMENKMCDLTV
Assay: STAT3-luciferase reporter assay in HEK293-STAT3Luc-msLepR9 cells
Assay type: cell-based
From the text: LEPR is a cell surface single-pass transmembrane receptor. Activation of LEPR leads to phosphorylation of intracellular STAT3 (pSTAT3) and subsequent target gene transcription. To measure LEPR activation by anti-LEPR antibodies in the present disclosure, five independent STAT-luciferase reporter cell lines were established by introducing DNA plasmids encoding full-length LEPR of different species and STAT3-luciferase reporter gene into HEK293 cells (Table 4). […]
Before plating the cells for luciferase assays, the poly-D-Lysine coated 96-well plates (Corning Inc, #354651) were rinsed once with phosphate buffered solution (PBS). […] Cell lysing and One-Glo luciferase substrate solution (Promega, #E6120) were then added to each well, and relative luciferase units (RLUs) were measured on a ClarioStar plate reader. For each reporter cell line, positive control LEPR activation was calculated as the average RLUs stimulated by 20 nM recombinant human leptin protein (SEQ ID NO:27) minus the average RLUs of unstimulated cells and was set as maximum LEPR activation (100%). […]

human leptin: recombinant human leptin protein (SEQ ID NO:27), positive control
EC50 (antibodies at concentrations up to 90 nM, read-out: EC50 (nM) ± SEM): 0.0788 ± 0.017 nM
Agonism (%) ± SEM (vs 20 nM recombinant human leptin, antibodies up to 90 nM): 116.17%
